In patent US20260266848A1, “COMPOSITIONS AND METHODS FOR DIAGNOSING AND TREATING DYSTONIA” (Duke University, priority 2023, published 2026):

B1: BZW2 (protein, UniProt Q9Y6E2 1-419, looked up)
eIF5-mimic protein 1: MNKHQKPVLTGQRFKTRKRDEKEKFEPTVFRDTLVQGLNEAGDDLEAVAKFLDSTGSRLDYRRYADTLFDILVAGSMLAPGGTRIDDGDKTKMTNHCVFSANEDHETIRNYAQVFNKLIRRYKYLEKAFEDEMKKLLLFLKAFSETEQTKLAMLSGILLGNGTLPATILTSLFTDSLVKEGIAASFAVKLFKAWMAEKDANSVTSSLRKANLDKRLLELFPVNRQSVDHFAKYFTDAGLKELSDFLRVQQSLGTRKELQKELQERLSQECPIKEVVLYVKEEMKRNDLPETAVIGLLWTCIMNAVEWNKKEELVAEQALKHLKQYAPLLAVFSSQGQSELILLQKVQEYCYDNIHFMKAFQKIVVLFYKADVLSEEAILKWYKEAHVAKGKSVFLDQMKKFVEWLQNAEEESESEGEEN
B2: SLC2A1 (protein, UniProt P11166 1-492, looked up)
Solute carrier family 2, …: MEPSSKKLTGRLMLAVGGAVLGSLQFGYNTGVINAPQKVIEEFYNQTWVHRYGESILPTTLTTLWSLSVAIFSVGGMIGSFSVGLFVNRFGRRNSMLMMNLLAFVSAVLMGFSKLGKSFEMLILGRFIIGVYCGLTTGFVPMYVGEVSPTALRGALGTLHQLGIVVGILIAQVFGLDSIMGNKDLWPLLLSIIFIPALLQCIVLPFCPESPRFLLINRNEENRAKSVLKKLRGTADVTHDLQEMKEESRQMMREKKVTILELFRSPAYRQPILIAVVLQLSQQLSGINAVFYYSTSIFEKAGVQQPVYATIGSGIVNTAFTVVSLFVVERAGRRTLHLIGLAGMAGCAILMTIALALLEQLPWMSYLSIVAIFGFVAFFEVGPGPIPWFIVAELFSQGPRPAAIAVAGFSNWTSNFIVGMCFQYVEQLCGPYVFIIFTVLLVLFFIFTYFKVPETKGRTFDEIASGFRQGGASQSDKTPEELFHPLGADSQV
B3: MARS1 (protein, UniProt P56192 1-900, looked up)
Methionine--tRNA ligase, …: MRLFVSDGVPGCLPVLAAAGRARGRAEVLISTVGPEDCVVPFLTRPKVPVLQLDSGNYLFSTSAICRYFFLLSGWEQDDLTNQWLEWEATELQPALSAALYYLVVQGKKGEDVLGSVRRALTHIDHSLSRQNCPFLAGETESLADIVLWGALYPLLQDPAYLPEELSALHSWFQTLSTQEPCQRAAETVLKQQGVLALRPYLQKQPQPSPAEGRAVTNEPEEEELATLSEEEIAMAVTAWEKGLESLPPLRPQQNPVLPVAGERNVLITSALPYVNNVPHLGNIIGCVLSADVFARYSRLRQWNTLYLCGTDEYGTATETKALEEGLTPQEICDKYHIIHADIYRWFNISFDIFGRTTTPQQTKITQDIFQQLLKRGFVLQDTVEQLRCEHCARFLADRFVEGVCPFCGYEEARGDQCDKCGKLINAVELKKPQCKVCRSCPVVQSSQHLFLDLPKLEKRLEEWLGRTLPGSDWTPNAQFITRSWLRDGLKPRCITRDLKWGTPVPLEGFEDKVFYVWFDATIGYLSITANYTDQWERWWKNPEQVDLYQFMAKDNVPFHSLVFPCSALGAEDNYTLVSHLIATEYLNYEDGKFSKSRGVGVFGDMAQDTGIPADIWRFYLLYIRPEGQDSAFSWTDLLLKNNSELLNNLGNFINRAGMFVSKFFGGYVPEMVLTPDDQRLLAHVTLELQHYHQLLEKVRIRDALRSILTISRHGNQYIQVNEPWKRIKGSEADRQRAGTVTGLAVNIAALLSVMLQPYMPTVSATIQAQLQLPPPACSILLTNFLCTLPAGHQIGTVSPLFQKLENDQIESLRQRFGGGQAKTSPKPAVVETVTTAKPQQIQALMDEVTKQGNIVRELKAQKADKNEVAAEVAKLLDLKKQLAVAEGKPPEAPKGKKKK
B4: LRRC59 (protein, UniProt Q96AG4 1-307, looked up)
Leucine-rich …: MTKAGSKGGNLRDKLDGNELDLSLSDLNEVPVKELAALPKATILDLSCNKLTTLPSDFCGLTHLVKLDLSKNKLQQLPADFGRLVNLQHLDLLNNKLVTLPVSFAQLKNLKWLDLKDNPLDPVLAKVAGDCLDEKQCKQCANKVLQHMKAVQADQERERQRRLEVEREAEKKREAKQRAKEAQERELRKREKAEEKERRRKEYDALKAAKREQEKKPKKEANQAPKSKSGSRPRKPPPRKHTRSWAVLKLLLLLLLFGVAGGLVACRVTELQQQPLCTSVNTIYDNAVQGLRRHEILQWVLQTDSQQ
B5: MRC2 (protein, UniProt Q9UBG0 31-1479, looked up)
C-type mannose receptor 2: GAPGDAALPEPNVFLIFSHGLQGCLEAQGGQVRVTPACNTSLPAQRWKWVSRNRLFNLGTMQCLGTGWPGTNTTASLGMYECDREALNLRWHCRTLGDQLSLLLGARTSNISKPGTLERGDQTRSGQWRIYGSEEDLCALPYHEVYTIQGNSHGKPCTIPFKYDNQWFHGCTSTGREDGHLWCATTQDYGKDERWGFCPIKSNDCETFWDKDQLTDSCYQFNFQSTLSWREAWASCEQQGADLLSITEIHEQTYINGLLTGYSSTLWIGLNDLDTSGGWQWSDNSPLKYLNWESDQPDNPSEENCGVIRTESSGGWQNRDCSIALPYVCKKKPNATAEPTPPDRWANVKVECEPSWQPFQGHCYRLQAEKRSWQESKKACLRGGGDLVSIHSMAELEFITKQIKQEVEELWIGLNDLKLQMNFEWSDGSLVSFTHWHPFEPNNFRDSLEDCVTIWGPEGRWNDSPCNQSLPSICKKAGQLSQGAAEEDHGCRKGWTWHSPSCYWLGEDQVTYSEARRLCTDHGSQLVTITNRFEQAFVSSLIYNWEGEYFWTALQDLNSTGSFFWLSGDEVMYTHWNRDQPGYSRGGCVALATGSAMGLWEVKNCTSFRARYICRQSLGTPVTPELPGPDPTPSLTGSCPQGWASDTKLRYCYKVFSSERLQDKKSWVQAQGACQELGAQLLSLASYEEEHFVANMLNKIFGESEPEIHEQHWFWIGLNRRDPRGGQSWRWSDGVGFSYHNFDRSRHDDDDIRGCAVLDLASLQWVAMQCDTQLDWICKIPRGTDVREPDDSPQGRREWLRFQEAEYKFFEHHSTWAQAQRICTWFQAELTSVHSQAELDFLSHNLQKFSRAQEQHWWIGLHTSESDGRFRWTDGSIINFISWAPGKPRPVGKDKKCVYMTASREDWGDQRCLTALPYICKRSNVTKETQPPDLPTTALGGCPSDWIQFLNKCFQVQGQEPQSRVKWSEAQFSCEQQEAQLVTITNPLEQAFITASLPNVTFDLWIGLHASQRDFQWVEQEPLMYANWAPGEPSGPSPAPSGNKPTSCAVVLHSPSAHFTGRWDDRSCTEETHGFICQKGTDPSLSPSPAALPPAPGTELSYLNGTFRLLQKPLRWHDALLLCESRNASLAYVPDPYTQAFLTQAARGLRTPLWIGLAGEEGSRRYSWVSEEPLNYVGWQDGEPQQPGGCTYVDVDGAWRTTSCDTKLQGAVCGVSSGPPPPRRISYHGSCPQGLADSAWIPFREHCYSFHMELLLGHKEARQRCQRAGGAVLSILDEMENVFVWEHLQSYEGQSRGAWLGMNFNPKGGTLVWQDNTAVNYSNWGPPGLGPSMLSHNSCYWIQSNSGLWRPGACTNITMGVVCKLPRAEQSSFSPSALPENPAALVVVLMAVLLLLALLTAALILYRRRQSIERGAFEGARYSRSSSSPTEATEKNILVSDMEMNEQQE
B6: ACAA1 (protein, UniProt P09110 27-424, looked up)
3-ketoacyl-CoA thiolase, …: LSGAPQASAADVVVVHGRRTAICRAGRGGFKDTTPDELLSAVMTAVLKDVNLRPEQLGDICVGNVLQPGAGAIMARIAQFLSDIPETVPLSTVNRQCSSGLQAVASIAGGIRNGSYDIGMACGVESMSLADRGNPGNITSRLMEKEKARDCLIPMGITSENVAERFGISREKQDTFALASQQKAARAQSKGCFQAEIVPVTTTVHDDKGTKRSITVTQDEGIRPSTTMEGLAKLKPAFKKDGSTTAGNSSQVSDGAAAILLARRSKAEELGLPILGVLRSYAVVGVPPDIMGIGPAYAIPVALQKAGLTVSDVDIFEINEAFASQAAYCVEKLRLPPEKVNPLGGAVALGHPLGCTGARQVITLLNELKRRGKRAYGVVSMCIGTGMGAAAVFEYPGN
B7: EHD4 (protein, UniProt Q9H223 1-541, looked up)
EH domain-containing protein 4: MFSWMGRQAGGRERAGGADAVQTVTGGLRSLYLRKVLPLEEAYRFHEFHSPALEDADFENKPMILLVGQYSTGKTTFIRYLLEQDFPGMRIGPEPTTDSFIAVMYGETEGSTPGNALVVDPKKPFRKLSRFGNAFLNRFMCSQLPNQVLKSISVIDSPGILSGEKQRISRGYDFCQVLQWFAERVDRIILLFDAHKLDISDEFSEAIKAFRGQDDKIRVVLNKADQVDTQQLMRVYGALMWSLGKVINTPEVLRVYIGSFWAQPLQNTDNRRLFEAEAQDLFRDIQSLPQKAAVRKLNDLIKRARLAKVHAYIISYLKKEMPSVFGKENKKRELISRLPEIYIQLQREYQISAGDFPEVKAMQEQLENYDFTKFHSLKPKLIEAVDNMLSNKISPLMNLISQEETSTPTQLVQGGAFDGTTEGPFNQGYGEGAKEGADEEEWVVAKDKPVYDELFYTLSPINGKISGVNAKKEMVTSKLPNSVLGKIWKLADCDCDGMLDEEEFALAKHLIKIKLDGYELPSSLPPHLVPPSHRKSLPKAD
B8: PSMD12 (protein, UniProt O00232 2-456, looked up)
26S proteasome non-ATPase …: ADGGSERADGRIVKMEVDYSATVDQRLPECAKLAKEGRLQEVIETLLSLEKQTRTASDMVSTSRILVAVVKMCYEAKEWDLLNENIMLLSKRRSQLKQAVAKMVQQCCTYVEEITDLPIKLRLIDTLRMVTEGKIYVEIERARLTKTLATIKEQNGDVKEAASILQELQVETYGSMEKKERVEFILEQMRLCLAVKDYIRTQIISKKINTKFFQEENTEKLKLKYYNLMIQLDQHEGSYLSICKHYRAIYDTPCIQAESEKWQQALKSVVLYVILAPFDNEQSDLVHRISGDKKLEEIPKYKDLLKLFTTMELMRWSTLVEDYGMELRKGSLESPATDVFGSTEEGEKRWKDLKNRVVEHNIRIMAKYYTRITMKRMAQLLDLSVDESEAFLSNLVVNKTIFAKVDRLAGIINFQRPKDPNNLLNDWSQKLNSLMSLVNKTTHLIAKEEMIHNLQ

test system: DYT1 patient plasma derived EVs; experiment: Plasma-derived EV proteomics (ExoQuick ULTRA, DIA LC/MS/MS), DYT1 vs Healthy Controls; parameters: species or system human; details: Hs. Plasma EVs (DYT1/WT); significance of genotype difference
Method: Data was obtained for extracellular vesicles using previously acquired samples. The ExoQuick® ULTRA EV Isolation System was used to fractionate and enrich EVs from plasma. Isolated plasma EV samples were then submitted to proteomic analysis by the Duke Proteomics and Metabolomics Core Facility (DPMCF). At the DPMCF, quantitative (LC/MS/MS) was performed on 500 ng of each sample, using an EvoSep One UPLC system coupled to a Thermo Orbitrap Astral high-resolution accurate mass tandem mass spectrometer (Thermo). Briefly, the sample was eluted directly from an Evotip which was subjected to a low organic wash and then subjected to an analytical separation using a 1.7 μm EvoSep 150 um ID×15 cm endurance (EveoSep) column running an SPD30 gradient from approximately 5 to 30% acetonitrile with 0.1% formic acid with a column temperature of 50 C. Data collection on the Orbitrap Astral mass spectrometer was performed in a data-independent acquisition (DIA) mode of acquisition with a r=240,000 (@m/z 200) full MS scan from m/z 380-980 with a target AGC value of 4e5 ions. Fixed DIA, windows of 4 m/z from m/z 380 to 980 DIA MS/MS scans were acquired in the Astral with a target AGC value of 5e4 and a max fill time of 6 ms. HCD collision energy setting of 27% was used for all MS2 scans.

In order of falling “-LogP” value:
1. B7  3.322
2. B3  1.714
3. B2  1.635
4. B4  1.584
5. B8  1.461
6. B5  1.456
7. B6  1.434
8. B1  1.385
